The values below come from the DeepSol protein solubility set.

The nature of this data set: soluble on expression in E. coli; label from the status in PepcDB or PDB records.
As to “PIDWNPQRIAVSGVSGVGKTTLCKQIAALSGFPRVELDSLYHGENWVPRETFVAEVQDFIKGPQWVMELQYRQVRPLIVERADTVLWLDYSTPRQMFRLIKRTIPRSLFKTKL”, the “soluble on expression in E. coli” value was “not soluble”.
Regarding “PKTLYDKIWDAHLAHEAEDGTCLLYIDRHLVHEVTSPQAFEGLRMAGRKVRAPEKTIAVPDHNVPTTEGREDPAQMTEESRIQVQALDKNAREFGVHYYPVDDIRQGIVHIVGPEQGWTLPGMTVVCGDSHTATHGAFGALAHGIGTSEVEHVLATQTLIQKKSKN”, the “soluble on expression in E. coli” value is “not soluble”.
Then “PLGSMPFHAEPLKPSDEIDMDLGHSVAAQKFKEIREVLEGNRYWARKVTSEEPEFMAEQVKGQAPNFLWIGCADSRVPEVTIMARKPGDVFVQRNVANQFKPEDDSSQALLNYAIMNVGVTHVMVVGHTGCGGCIAAFDQPLPTEENPGGTPLVRYLEPIIRLKHSLPEGSDVNDLIKENVKMAVKNVVNSPTIQGAWEQARKGEFREVFVHGWLYDLSTGNIVDLNVTQGPHPFVDDRVPRA”, with “soluble”.
For “PLRDVLDSNEFRDSKATLPIALGKDISGKPVIVDLAKMPHLLVAGSTGSGKSVGVNTMILSLLYRVQPEDVKFIMIDPKVVELSVYNDIPHLLTPVVTDMKKAANALRWCVDEMERRYQLLSALRVRNIEGFNEKIDEYEAMGMPVPNPIWRLGDTMDAMPPALKKLSYIVVIVDEFADLMMVAGKQIEELIARLAQKARAIGIHLILATQRPSV” the value was “not soluble”; for “PLRLALSKLLVKANQPSAALSPLVHLPPMPSRDYLAMRAALAQKQKQNDIALESYQLLTQREPDNARWWLGLAIQQERALTFTAAINSYNEALGKVGISNQSQAFIRDRLTILKQLESAQ”, “not soluble”; for “PLSQVVRFHASSGTTGKPTVVGYTANDIRNWVESLCRALVSCGVSSDDIMQIAYGYGLFTGGLGFHYAAERLGATVLPISAGNTARQIELMKDLGSTVMACTPSYMIYLAEYASQMGVDIAEDTNLRAGIFGAEPWSEETRKRIEDKTGITAYDVYGTSELSGPLFTECTER”, “not soluble”.
Then “PPTGECRTVVFDFDGVLAEGFEGEVRPRPLGVALARRLIGRGYRVYIVSGRPEQERSLIARLLREWCIPLGGVRGIILRRRGVGEVDHKLESIMEVEAREGCVGEVHDDNPYVLEALRRRVETLVLHTPR”, with “not soluble”; and “PRVPSAGAAECKGEISNVQWKNDTNIKDGVFVGSYGQGADVQFDWKVDPGAKAGDQFTLKLPNELSRLGNKDLTLTAPSGEEVAKGTWDDVAKTWTFTLTDYANSHGDISGSAFFTVQWDRSVAQSNTQYPLTFSGCKGAGTLNGKTPEEGVGGTAQATSKTGLYDSKTDSARWNIYVETADTDIYTPVVVKDIGNTQLLFRCSDVKVFDRTPYPHTKIRDTPIDPNRWKCEEKDGGIIVSMVPDEHGRYLTAGQSLTIGFETPINDDTSRFITNKAIVEISPNKIENVEYSVDRGDAGGVGQGFQGKIKIQKEVVGETAPVQGNKFDFEYKCGETTQNISVAAGQTSDIFTQRSSSTCSITEKNVAEGVTVDFEVIDEETGKPAYVVPIDNGVTVKFNKNSSTTLNVKVTNTYPNKPEAKKGKFVIKKTVNGLDAGQKDKAFKFNYTCKAPDGDAYTEPQLAEVTAGRTWQSGNYPEGTICTIEEDLESAKVPGYSLISAQPKGDVTIKAEGTEGSPVEFAATNSYTKDLGSFSVQKKIEASAEAMPLLKDQEFGFKYTCGADKGEFKLKNGETKKVERIATGTKCTVEESDAKVPNGFMWTGKIEGTDLDPNDFTIVKDKTLAFTATNTYKQQYGGFTLSKNVTGDATNLEELQKRSYTFNYTCTAPTGTVLKDKVEITEETPKAIGNIPAASTCKVTEVEAPAKDTDWTVDLSVNGTWVGETAEFKVPAEGEPSISILAKNNYRQHKGSFTIEKIVDASEGIVTPKEFTFTWQCGEDKGAETVRVTNGKGRVEIDRAFPVGTKCSVKELEAEAEDARLITSWENQEFTIDKDKQHVIVSATNTYRYAESKVKIVKKLEGPAKDKAKDKTFTFDYSCVVNNEAIEGSVNITGEGATEIPESFPAGTKCTITERDASISGTTWTHRIAEDGQITIQSPAKVYQVGVTNAYSKPGFP”, with “not soluble”.
Turning to “PSMPASPVLTKAGITWLSLQWSKPSGTPSDEGISYILEMEEETSGYGFKPKYDGEDLAYTVKNLRRSTKYKFKVIAYNSEGKSNPSEVVEFTTCPD”, the “soluble on expression in E. coli” value was “soluble”.
Then “PVAMKEAQKRLGDKVEYTTDMYDAVRGAEALFHVTEWKEFRMPDWSALSQTMAASLVIDGRNVYELPADSDFTLLNIGNSAIESASSK”, with “not soluble”; and “PVIGSVAPESLAAQAGLEAGQELLAVDGEPVTGWNGVNLQLVRRLGESGTLEVRVQEKGSNVDSTHQVRLDGWLKGEDNPDPIASLGIRPWRPALPPVLAELDPKGPAQAAGLKLGDRLQSIDGIAVDDWQQVVDSVRARPGQRVQLKVLRDGEVLDVALELAVRGEGKARSGYMGAGVAGTEWPAEMLREVSYGPLEAVGQALSRTWTMSLLTLDSIKKMLLGELSVKNLSGPITIAKVAGASAQSGVGDFLNF”, with “not soluble”.
As to “PVMADTIKLRIVETTDIHTNLMDYDYYKDKASDQIGLTRAATLVKQARAEVENSVLVDNGDLIQGSPMGDYMAAKGIKAGEVHPVYKAMNPLGYDVGNIGNHEFNYGLEFLKETINDAAFPYINANVFDAKTGQHLFTPYVIKEHSFKDTDGEAHTIKVGYIGFVPPQIMVWDKKNLEGKVTAADIKQTAEKLIPEMKAKGADVIVAIPHSGISTDEYQAGAENSVYYLTQVKGIDAIAFGHSHAVFPGKDFANVPGADIDKGTINGVTAVMPGRWGSHVGVMDLTLEKQQGRWAVTSGQSEARPIFDKANKKALVEADATMVQALQHDHQGTRDFVNQ”, the “soluble on expression in E. coli” value is “not soluble”.
For “QADAGPDKELTLPVDSTTLDGSKSSDDQKIISYLWEKTQGPDGVQLENANSSVATVTGLQVGTYVFTLTVKDERNLQSQSSVNVIVKEE”, the “soluble on expression in E. coli” value is recorded as “soluble”.
For “QAFVSAQTSTIPKTAFTAHDFVDYTLPQEQKGKEQKEQQWMKNSQTKDTDVHPYADFAVLEILLFPDSSTDRKIFNHFIQPAIRAYKQLGDSLNIFANQTLDQPKHNRYYLLGYPFLRNKAASLFLNQTEQRKEHMDKTTQILHEKPFVVLTDPAKPTLIRNKGANFTGNTWTSNYDL” the value was “not soluble”.
Consider “QDGGYSAREFMIFSSQPAEIADKIMKDLERGSTYINIEGAYKRTPGKAVYVVVDPSEVRQVREIIEEIDPKAFVSIRIVSEQLGEGFTYLRKKRSIFGR”, for which the “soluble on expression in E. coli” value is recorded as “not soluble”.
Then “QDLTVKMTDLQTGKPVGTIELSQNKYGVGFIPELADLTPGMHGFHIHQNGSCASSEKDGKVVLGGAAGGHYDPEHTNKHGFPWTDDNHKGDLPALFVSANGLATNPVLAPRLTLKELKGHAIMIHAGGDNHSDMPKALGGGGARVACGVIQ”, with “soluble”; and “QDTSPDTLVVTANRFEQPRSTVLAPTTVVTRQDIDRWQSTSVNDVLRRLPGVDITQNGGSGQLSSIFIRGTNASHVLVLIDGVRLNLAGVSGSADLSQFPIALVQRVEYIRGPRSAVYGSDAIGGVVNIITTRDEPGTEISAGWGSNSYQNYDVSTQQQLGDKTRVTLLGDYAHTHGYDVVAYGNTGTQAQTDNDGFLSKTLYGALEHNFTDAWSGFVRGYGYDNRTNYDAYYSPGSPLLDTRKLYSQSWDAGLRYNGELIKSQLITSYSHSKDYNYDPHYGRYDSSATLDEMKQYTVQWANNVIVGHGSIGAGVDMQMQMTTPGTGYVEDGYDQRNTGIYLTGLQQVGDFTFEGAARSDDNSQFGRHGTWQTSAGWEFIEGYRFIASYGTSYKAPNLGQLYGFYGNPNLDPEKSKQWEGAFEGLTAGVNWRISGYRNDVSDLIDYDDHTLKYYNEGKARIKGVEATANFDTGPLTHTVSYDYVDARNAITDTPLLRRAKQQVKYQLDWQLYDFDMGMTMQYLGTRYDKDYSSYPYQTVKMGGVSLWDLAVAYPVTSHLTVRGKIANLFDKDYETVYGYQTAGREYTLSGSYTF”, with “soluble”.
As for “QECTKFKVSSCRECIESGPGCTWCQKLNFTGPGDPDSIRCDTRPQLLMRGCAADDIMDPTSLAETQEDHNGGQKQLSPQKVTLYLRPGQAAAFNVTFRRAKGY”, the “soluble on expression in E. coli” value was “soluble”.
Consider “QEGTSPMQKETRFLPGTNVEYEDYSTFFDKFSASGGFVLFNSNRKKYTIYNRKESTSRFAPASTYKVFSALLALESGIITKNDSHMTWDGTQYPYKEWNQDQDLFSAMSSSTTWYFQKLDRQIGEDHLRHYLKSIHYGNEDFSVPADYWLDGSLQISPLEQVNILKKFYDNEFDFKQSNIETVKDSIRLEESNGRVLSGKTGTSVINGELHAGWFIGYVETADNTFFFAVHIQGEKRAAGSSAAEIALSILDKKGIYPSVSR”, for which the “soluble on expression in E. coli” value is “soluble”.
Then “QHGSSTDPSFVALRNNSSLSCDGKSRLLEFGNDLGFSKEETDVLAKQKNWEQNYTNFKKQFEHKLLDPKSFSLTDVYNLFSGFQQSVADTVKLMNELQTQVNKANDIYPVESFQVPKVPQKLFGFVDQGFFPKLNPKGLNIADNVASLFEKYSLKQATLKDFDIVLEKKNDIVLEHKVRYNFALQ”, with “not soluble”; and “QHTEERELKKRLMNTARTVSEMTEVKEALARKKQTEAVRHAVEEIRMINEADYIVVMDMNHIRYTHPVSTSIGKKSEGADEEAAFAEHIYFSEAKGEIGTAVRAFYPVKDQDLNQIGVVLVGKTLPGIADILLHLKRD”, with “not soluble”; and “QIGELKTTVGNSTIKVNDEVQVGSAFEAILGIEGLNGDTEVYSAEYLFEYNAEAFILNEITSFNDSLFVKSKEVEPGKVRILVASLGNEIEKDSDLVKVNLTPKISSELEVLGLTTALVGAGDGNTHDLELSSKEVKINEEAS”, with “soluble”.
In the case of “QNEEEADRIGIQVLQRSGFDPQAMPMFMGKLLDESRYSTRPPEMLLTHPLPESRLADARNRANQMRPVVVQSSADFYLAKARTLGMYTNGDNKLGTDLLNAWDKGNIRQQHAAQYGRALLAMESNNFDQARKTLQPLLNADPQNAWYLDLATDIDLGQKKTSDAINRLKNARELRTNPVLQLNLANALLQGGQPGEAATILNRYTFTYKEDGNGWDLLAQAEGALGNRDQELAARAESMALVGQLEQA”, the “soluble on expression in E. coli” value is “not soluble”.
Then “QSRTPTIFFHGYGSSANAETHMTNAAKKAGVTKTVILAYVDQNGHVTLVGKIPKNAINPIVKVNFADNRNADYDTDAKYAKAVVSKLQKTYHFKKMNMVGHSMGNMAINFYMLANAEDKTLPQLQKQVDIAGHFDGIKNYDLPQNLTINAKTGQPNAMTAAYKRLLKLQERYPKDQVDVLNLYGDKGDGSDGIVTNDSSRTLKYLIGERAKSYQEHRFTGKLAGHSKLHENPQVDKFLINFLWGK”, with “not soluble”; and “QSTVKIILEEDTETLDEVVVVGYGVQKKSDVTGAMARVTSKVIEDRPVQNALQAMQGRVTGVDITSNNRPGELGDIRIRGNRSLTADNNPLYVIDGIPMSAGSIADVNPSDIESMEILKDASATAIYGSRGANGVILVTTKKGKTGR”, with “not soluble”; and “QTIKDFLAVAMKKWTAPFEPFQLIDNIYYVGTDGIAVYVIKTSQGLILMDTAMPQSTGMIKDNIAKLGFKVADIKLILNTHAHLDHTGGFAEIKKETGAQLVAGERDKPLLEGGYYPGDEKNEDLAFPAVKVDRAVKEGDRVTLGDTTLTAHATPGHSPGCTSWEMTVKDGKEDREVLFFCSGTVALNRLVGQPTYAGIVDDYRATFAKAKAMKIDVLLGPHPEVYGMQAKRAEMKDGAPNPFIKPGELVTYATSLSEDFDKQLAKQTAALEKK”, with “soluble”.
